Results: patent US10456446B2, “Use of human small leucine zipper protein in osteogenesis procedure” (Korea University Research and Business Foundation, priority 2013, dated 2019)

Experiments:
PPARγ2 and PGC1α = target: T1, PPARγ2 and PGC1α (Homo sapiens, UniProt P37231); assay: GST pull-down, coactivator PGC1α on PPARγ2; assay type: binding; conditions: 10 nM RZD for 24 hours
T1 construct: expressed in transfected cells; host or cells: 293T (PGC1α endogenous)
T1 sequence (P37231 1-505): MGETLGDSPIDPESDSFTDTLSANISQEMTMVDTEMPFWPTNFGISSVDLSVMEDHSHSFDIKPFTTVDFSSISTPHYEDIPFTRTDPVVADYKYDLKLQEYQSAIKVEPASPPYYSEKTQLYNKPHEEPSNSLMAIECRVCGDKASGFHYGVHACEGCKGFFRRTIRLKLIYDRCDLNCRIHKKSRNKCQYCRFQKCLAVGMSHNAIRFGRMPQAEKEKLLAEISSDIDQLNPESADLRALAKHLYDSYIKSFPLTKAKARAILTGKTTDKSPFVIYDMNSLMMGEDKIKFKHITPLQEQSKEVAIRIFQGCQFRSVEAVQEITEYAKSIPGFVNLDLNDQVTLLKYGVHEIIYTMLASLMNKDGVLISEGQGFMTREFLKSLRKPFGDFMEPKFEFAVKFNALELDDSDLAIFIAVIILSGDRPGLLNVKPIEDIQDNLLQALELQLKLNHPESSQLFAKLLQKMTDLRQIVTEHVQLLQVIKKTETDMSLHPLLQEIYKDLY
Experimental: Therefore, in order to understand a regulation mechanism of sLZIP in the PPARγ2 transcriptional activity by binding to the FABP4 promoter region, an effect of sLZIP on the interaction between PPARγ2 and HDAC3 was examined. For this purpose, 293T cells were transfected with GST-HDAC3, Myc-PPARγ2 and Flag-sLZIP, and were treated or not treated with 10 nM of RZD for 24 hours. Cell lysates were subjected to GST pull-down analysis using a glutathione 4B bead, and a protein complex was analyzed in SDS-PAGE, and then immunoblotted with anti-GST, anti-Myc and anti-Flag antibodies (FIG. 6A). GST-HDAC3, GST-PPARγ2, Myc-PPARγ2, Flag-sLZIP and Ha-UB were expressed in the 293T cells, and the cells were treated with 10 nM of RZD for 24 hours. Cell lysates were subjected to GST pull-down analysis (FIG. 6B). GST-PPARγ2 and Flag-sLZIP were expressed in the 293T cells and treated with 10 nM of RZD for 24 hours. Cell lysates were subjected to GST pull-down analysis, and a protein complex was analyzed in SDS-PAGE, and then immunoblotted with anti-PGC1α, anti-GST and anti-Flag antibodies (FIG. 6C).

HDAC3 = target: T2, HDAC3 (Homo sapiens, UniProt O15379); assay: GST pull-down of sLZIP with HDAC3 in 293T cells; assay type: binding
T2 construct: expressed in transfected cells; host or cells: 293T
Experimental: 293T cells were obtained and washed with cold PBS. The cells were re-suspended in an IP lysis buffer [25 mM of Tris-HCl (pH 7.4), 150 mM of NaCl, 1 mM of EDTA, 1% NP-40 and 5% glycerol, and a protease inhibitor]. A suspension was centrifuged at 16,000×g for 20 minutes at 4° C. Supernatants were collected and incubated with 0.5 μg of appropriate antibodies and 25 μl of protein A/G-agarose or a GST Sepharose 4B bead for 24 hours at 4° C. A protein complex was centrifuged at 1,000×g with a cold IP lysis buffer for 1 minute and washed five times. The final pellet was re-suspended in 50 μl of an SDS-sample buffer containing 5% β-mercaptoethanol and heated for 10 minutes at 100° C. A protein sample was isolated in SDS-PAGE (8 to 10%) and transferred to nitrocellulose membranes. Co-precipitated proteins were detected according to western blotting using specific antibodies.
For this purpose, 293T cells were transiently transfected with PPARγ2 (0.5 μg), β-galactosidase (0.1 μg), FABP4-Luc reporter genes (0.2 μg) and sLZIP (0.1 μg). […] A promoter activity was measured according to luciferase analysis. […] After the transfection, the cells were stimulated with or without 10 nM of RZD, and a promoter activity was measured (FIG. 4B). […] GFP-sLZIP expression constructs were expressed in C3H10T1/2 cells, rabbit anti-HDAC3 antibodies and Texas Red-labeled anti-rabbit antibodies were used and analysis was performed under a fluorescence microscope. […] A protein complex was analyzed in SDS-PAGE, and anti-GST and anti-Flag antibodies were used for immunoblotting (FIG. 4E). *, P<0.05; **, P<0.01
For this purpose, 293T cells were transfected with GST-PPARγ2 and Flag-sLZIP and were treated or not treated with 10 nM of RZD for 24 hours. […] A protein complex was analyzed in SDS-PAGE, and immunoblotted with anti-GST and anti-Flag antibodies. […] The cell lysates were GST pull-down analyzed (FIG. 5C). […] The cell lysates were GST pull-down analyzed (FIG. 5D). […] A protein complex was analyzed in SDS-PAGE, and then immunoblotted with anti-NCoR1 and anti-Flag antibodies (FIG. 5E). […]

T2 sequence (O15379 whole entry, species assumed): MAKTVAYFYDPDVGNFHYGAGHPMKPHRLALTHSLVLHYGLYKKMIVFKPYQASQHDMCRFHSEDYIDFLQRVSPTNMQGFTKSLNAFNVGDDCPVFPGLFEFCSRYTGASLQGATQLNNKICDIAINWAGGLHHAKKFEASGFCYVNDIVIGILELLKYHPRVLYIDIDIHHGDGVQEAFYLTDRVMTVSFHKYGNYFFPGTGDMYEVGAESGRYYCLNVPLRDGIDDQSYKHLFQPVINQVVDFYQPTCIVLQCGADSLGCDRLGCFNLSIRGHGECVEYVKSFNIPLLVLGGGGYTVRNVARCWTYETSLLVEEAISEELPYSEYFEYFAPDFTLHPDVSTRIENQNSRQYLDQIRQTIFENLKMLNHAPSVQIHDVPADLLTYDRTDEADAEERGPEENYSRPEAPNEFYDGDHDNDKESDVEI

complementing of coactivator PGC-la for PPARγ2 (PPARγ2 and PGC1α): inhibited
interaction with HDAC3 (HDAC3; 10 nM RZD for 24 hours): remained as being interacted with sLZIP
interaction with HDAC3 (HDAC3; GST-HDAC3 and Flag-sLZIP, 293T cells, GST pull-down): interacted with HDAC3
interaction with HDAC3 in a PPARγ2 corepressor complex (HDAC3; no RZD treated): interacted with HDAC3
B1: sLZIP: human small leucine-zipper protein, isoform of LZIP, 354 amino acids, no transmembrane domain, GenBank FJ263669, SEQ ID NO: 1 (protein, listed as Homo sapiens)
chain: MELELDAGDQDLLAFLLEESGDLGTAPDEAVRAPLDWALPLSEVPSDWEVDDLLCSLLSPPASLNILSSSNPCLVHHDHTYSLPRETVSMDLESESCRKEGTQMTPQHMEELAEQEIARLVLTDEEKSLLEKEGLILPETLPLTKTEEQILKRVRRKIRNKRSAQESRRKKKVYVGGLESRVLKYTAQNMELQNKVQLLEEQNLSLLDQLRKLQAMVIEISNKTSSSSMYSSDTRGSLPAEHGVLSRQLRALPSEDPYQLELPALQSEVPKDSTHQWLDGSDCVLQAPGNTSCLLHYMPQAPSAEPPLEWPFPDLFSEPLCRGPILPLQANLTRKGGWLPTGSPSVILQDRYSG
